Test results: the RNAGym collection of RNA variant scans (doi:10.1073/pnas.2313332121)

B1: TPR t1 (parent)
chain: GACCAAUCUGCCCUCAGAGCUCGAGAACAUCUUCGGAUGCAGAGGAGGCAGGCUUCGGUGGCGCGAUAGCGCCAACGUCCUCAACCUCCAAUGCAUCCCACCACAUGAUGAUGCCUGAAGAGCCUUGGUUUUUUG

Variants of: B1
Test: polymerase ribozyme fitness, log enrichment relative to wild type (log ratio); higher = more active; in vitro selection for triplet polymerase activity
In short: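 One round of in vitro selection, in triplicate, was applied to PCR-built, transcribed mutant libraries of each subunit of a heterodimeric triplet polymerase ribozyme. The steps were annealing with a biotinylated primer, partner subunit and triplets, incubation frozen at −7 °C, gel excision of extended constructs, streptavidin-bead capture and RT-PCR. Fitness is the logarithm, base 2, of genotype enrichment over wild-type enrichment from inverse-variance-weighted replicate averages of Illumina-sequenced inputs and outputs, keeping genotypes with ≥10 input reads and ≥1 read per output.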

Variant	polymerase ribozyme fitness (log ratio)
GACCAAUCUACCUUCAGAGCUCGAGAUCAUCUUCGGAUGCAGAGGAGGCAGGCUUCGGUGGCGCGAUAGCGCCAACGUCCUCAACCUCCAAUGCAUCCCACCACAUGAUGAUGCCUGAAGAGCCUUGGUUUUUUG [G10A C13U A27U]	-2.05
GACCAAUCUACGCUCAGAGCCCGAGAACAUCUUCGGAUGCAGAGGAGGCAGGCUUCGGUGGCGCGAUAGCGCCAACGUCCUCAACCUCCAAUGCAUCCCACCACAGGAUGAUGGCAGAAGAGCCUUGGUUUUUUG [G10A C12G U21C U106G C114G U116A]	-6.06
GACCAAUCUACCCUCAGAGCUCGAGAACAUCUUCGGAUGCAGAGGAGGAAGGCUUCGGUGGCGCGAUAGCGCCAACGUCCUCAACCUCCAAUGCAUCCCACCACAUGAUGAUGCCUGAAGAGCCUUGGUUUUUUG [G10A C49A]	0.131
GACCAAUCUACCCUCAGAGCUCGAGAACUUCUUCGGAUGCAGAGGAGGCAGGCUUCGGUGGCGCGAUAGCGCCAACGUCCUCAACCUCCAAUGCAUCCCACCACAUGAUGAUGCCUGAAGAGCCUUGGUUUUUUG [G10A A29U]	-1.77
GACCAAUCUACCCUCCGAGCUCGAGAACAUCUUCGGAUGCAGAGGAGGCGGGCUUCGGUGGCGCGAUAGCGCCAACGUCCUCAACCUCCAAUGCCUCCCACCACAUGAUGAUGCCUGAAGAGCCUUGGUUUUUUG [G10A A16C A50G A95C]	-3.07
GACCAAUCUACCGUCAGAGCUCGAGAACAUCUUCGGAUGCAGAGGAGGCAGGCUUCGGUGGCGCGAUAACGCCAACGCCCUCAACCUCCAAUGCAUCCCACCACAUGAUGAUGCCUGAAGAGCCUUGGUUUUUUG [G10A C13G G69A U78C]	-3.65
GACCAAUCUACCCUCAGAGCUCGAGAACAUCUUCGGAUGCAGAGGAGGCAGGCUUCGGUGGCGCGAUAGCGCAAACGUCCUCAACCUCCAAUGCAUCCCACCACAUGAUGAUGCCUGAAGAGCCUUGGUUUUUUG [G10A C73A]	-0.58
GACCAAUCUACCCUCAGAGCUCGAGAACAUCUUCGGAUGCAGAGGAGGCAGGCUUCGGUGGCGCGAUAGGGCCAACGUCCUCAACCUCCAAUGCAUCCCACCACAUGAUGAUGCCUGAAUAGCCUUGGUUUUUUG [G10A C70G G120U]	-1.35
GACCAAUCUACCCUCAGAGCUCGAGCACAUCUUCGUAUGCAGAGCAGGCAUGCUUCGGUGGCGCGAUAGUGCCAACGUACUCAACCUCCAAUGCAUCUCACCACAUGAUGAUGCCUGAAGAGUCUUUGUUUUUUG [G10A A26C G36U G45C G51U C70U C79A C98U C123U G127U]	-8.21
GACCAAUCUACCUUCAGAGCUCGAGAACAUCUUCGGAUGCACAGGGGGCAGGCUUCGGUGGCGCGAUAGCGCCAACGUCCUCAACCUCCAAUGCAUCCCAUCACAUGAUCAUGCCUGAAGAGCCUUGGUUUUUUG [G10A C13U G42C A46G C101U G110C]	-6.91
GACCAAUCUACCCUCAGAGUUCGAGAACAUCUUCGGAUGCAGAGGAGGCAGGCUUCGGUGGCGCAAUAGAGCCAACGUCCUCAACCUCCAUUGCAUCCCACCAGAUGAUGAUGCCUGAAUAGCCUUGGUUUUUUG [G10A C20U G65A C70A A91U C104G G120U]	-6.74
GACCAAUCUACCCUCAGAGCUUGAGAACAUCUUCGAAUGCAGCGGAGGGAGGCUUCGGUGGCGCGAUAGCGCCAACGUCCUCAACCUCCAAAGCAUCACACCACAUGAUGAUGCCUGAACAGCCGUGGUUUUUUG [G10A C22U G36A A43C C49G U92A C98A G120C U125G]	-7.92
GACCAAUCUAUCCUCAGAGCUCGAGAACAUCUUCGGAUGUAGAGGAGGCAGGCUUCGGUGGCGCGAUAGCGGCAACGUCCUCAACCUCCAAUGCAUCCCACCAGAUGAUGAUGCCUGAAGAGCUUUGGUUUUCUG [G10A C11U C40U C72G C104G C124U U133C]	-5.5
GACCAAUCUACCCUCUGAGCUCGAGAACAUCUUCGGAUGCAGAGGAGGCAGGCUUCGGUGGCGCGCUAGCGCCAACGUCCUCAACCUACAACGCAUCCCACCACAUGAUGAUGCCUGAAUAGCCUUGGUUUUUUG [G10A A16U A66C C88A U92C G120U]	-3.94
GACCAAUCUACCCUCAGAGCUCGCGAACGUCUUUGGAUGCAGAAGAGGCAGGUUUCGGUGGCGCGAUAGCGCCAACGUCCUCAACCUCCAAUGCAUCUCACCACAUGAUGUUGCCUGAAGAGCCUUGGUUUUUUG [G10A A24C A29G C34U G44A C53U C98U A111U]	-7.41
GACCAAUCUACCCUCAGAGCUCGAGAACAUCUUCGGAUGCAGAGGAGGCAGGCUUAGGUGGCGCGAUAGCGCCAACGUCCUCAACCUCCAAUGCAUCCCACCACAUGAUGAUGCCUGAAGAGCCUUGGUUUUUUG [G10A C56A]	0.127
GACCAAUCUACCCUCAGAGCUCGAGAACAUCUUCGGAUGCAGAGGAGGGAGGCUUCGGUGGCGCGAUAGCGCCAACGUCCUCAACCUCCAAUGCAUCCCACCACAUGAUGAUGCCUGAAGAGCCUUGGUUUUAUG [G10A C49G U133A]	-0.21
GACCAAUCUACCCUCAGAGCUCGAGAACAUCUUCGGAUGCAGAGGAGGCAGGCUUCGGUGGCGCGAUAGCGCUAACGUCCUCAUCCUCCAAUGCAUCCCACCACAUGAUUAUGCCUGAAGAGCCUUGGUUUUUUG [G10A C73U A84U G110U]	-2.38
GACCAAUCUACCCUCAGAGCUCGAGAACGUCUUCGGAUGCAGUGGAGGCAGGCUUCGGUGGCGCGAUAGUGCCAACGUCCUCAACCUCAAAUGCAUCCCACCACAUGAUGAUGCCUGAAGAGCCUUGGUUUUUUG [G10A A29G A43U C70U C89A]	-4.19
GACCAAUCUACCCUCAGAGCUCGAGAACAUCUUCGGAUGCAGAGGAGGCAGGCUUCGGUGGCGCGAUAGCGGCAACCUCCUCAACCUCCAAUGCGUCCCAGCACAUGAUGAUGCCUGAAGAGCCUUGGUUUUUUG [G10A C72G G77C A95G C101G]	-3.03
GACCAAUCGGCCCUCAGAGCUCGAGAACAUCUUCGGAUGCAGAGGAGGCAGGCGUCGCUGGCGCGAUAGCGCUAACGUCCUCAACCUCCAAUGCAUCCCACCACAUGAUGAUGCCUGAAGAGCCUUGGUUUUUUG [U9G U54G G58C C73U]	-0.715
